Patent publication US20230056336A1 (KYVERNA THERAPEUTICS, published 2023)
Numbering of substitutions follows the chain as printed. Names may count otherwise.

Target: T1, basiliximab fab
T1 construct: The assay used a Fab of basiliximab; Chimeric antibody: human IgG1 constant, mouse variable domains
Assay: BLI; CD25-Fc on anti-hFc biosensor, basiliximab Fab in solution; global 1:1 fit;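 also: biolayer interferometry signals normalized against a reference probe and smoothed with a Savitzky-Golay filter before the global fit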
Experimental: Briefly, binding affinity (KD) of CD25 mutants from Table 1 was measured using biolayer interferometry. […] Experimental data was normalized to a reference probe and high-frequency noise was removed by Savitzky-Golay filtering. On and off-rate constants were determined using a globally fitted 1:1 binding model.

T1 sequence (VH, as listed by the source limits assumed, chain 1 of 2): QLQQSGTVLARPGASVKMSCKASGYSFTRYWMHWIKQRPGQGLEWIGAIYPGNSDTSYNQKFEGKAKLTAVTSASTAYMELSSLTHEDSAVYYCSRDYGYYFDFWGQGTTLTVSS
T1 sequence (VL, as listed by the source limits assumed, chain 2 of 2): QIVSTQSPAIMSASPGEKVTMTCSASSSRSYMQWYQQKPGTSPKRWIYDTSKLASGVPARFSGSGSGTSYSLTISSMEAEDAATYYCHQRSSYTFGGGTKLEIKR

B1: CD25 L2F mutant (CD25-Fc) (Fc fusion)
chain: EFCDDDPPEIPHATFKAMAYKEGTMLNCECKRGFRRIKSGSLYMLCTGNSSHSSWDNQCQCTSSATRNTTKQVTPQPEEQKERKTTEMQSPMQPVDQASLPGHCREPPPWENEATERIYHFVVGQMVYYQCVQGYRALHRGPAESVCKMTHGKTRWTQPQLICTGEMETSQFPGEEKPQASPEGRPESETSCLVTTTDFQIQTEMAATMETSIFTTEYQ
notes: not shown: Fc part of CD25-Fc
B1 showed a Kd of 1.07 nM, a koff of 0.00252 s⁻¹ and a kon of 2.36e+06 M⁻¹ s⁻¹.

B2: CD25 L42I mutant (CD25-Fc) (Fc fusion)
chain: B1 chain with F2L, L42I
notes: not shown: Fc part of CD25-Fc
Work on B2 yielded a Kd of 23.3 nM, a koff of 0.0116 s⁻¹ and a kon of 499000 M⁻¹ s⁻¹.

B3: CD25 L2I mutant (CD25-Fc) (Fc fusion)
chain: B1 chain with F2I
notes: not shown: Fc part of CD25-Fc
In the case of B3, the Kd is reported as 3.46 nM, the koff is reported as 0.000734 s⁻¹ and the kon is reported as 212000 M⁻¹ s⁻¹.

B4: CD25 L42A mutant (CD25-Fc) (Fc fusion)
chain: B1 chain with F2L, L42A
notes: not shown: Fc part of CD25-Fc
B4 was tested, and the Kd was 0.242 nM, the koff was 2.49e-05 s⁻¹ and the kon was 103000 M⁻¹ s⁻¹.

B5: CD25 S41D mutant (CD25-Fc) (Fc fusion)
chain: B1 chain with F2L, S41D
notes: not shown: Fc part of CD25-Fc
With B5 the Kd was 6.49 nM, the koff was 0.00708 s⁻¹ and the kon was 1.09e+06 M⁻¹ s⁻¹.

B6: CD25 L42Y mutant (CD25-Fc) (Fc fusion)
chain: B1 chain with F2L, L42Y
notes: not shown: Fc part of CD25-Fc
In the case of B6, the Kd is reported as 1.75 nM, the koff is reported as 0.000325 s⁻¹ and the kon is reported as 186000 M⁻¹ s⁻¹.

B7: CD25 T47N mutant (CD25-Fc) (Fc fusion)
chain: B1 chain with F2L, T47N
notes: not shown: Fc part of CD25-Fc
For B7, the Kd was 12.8 nM, the koff was 0.00776 s⁻¹ and the kon was 608000 M⁻¹ s⁻¹.

B8: CD25 S41Q mutant (CD25-Fc) (Fc fusion)
chain: B1 chain with F2L, S41Q
notes: not shown: Fc part of CD25-Fc
Binder B8 has a Kd of 5.25 nM, a koff of 0.00512 s⁻¹ and a kon of 975000 M⁻¹ s⁻¹.

B9: CD25 L2Y mutant (CD25-Fc) (Fc fusion)
chain: B1 chain with F2Y
notes: not shown: Fc part of CD25-Fc
For B9, the Kd was 1.51 nM, the koff was 0.00263 s⁻¹ and the kon was 1.75e+06 M⁻¹ s⁻¹.

B10: CD25 L42V mutant (CD25-Fc) (Fc fusion)
chain: B1 chain with F2L, L42V
notes: not shown: Fc part of CD25-Fc
Work on B10 yielded a Kd of 3.93 nM, a koff of 0.000748 s⁻¹ and a kon of 190000 M⁻¹ s⁻¹.

B11: CD25 L42G mutant (CD25-Fc) (Fc fusion)
chain: B1 chain with F2L, L42G
notes: not shown: Fc part of CD25-Fc
With B11 the Kd was 1.14 nM, the koff was 0.000152 s⁻¹ and the kon was 133000 M⁻¹ s⁻¹.

B12: CD25 T47D mutant (CD25-Fc) (Fc fusion)
chain: B1 chain with F2L, T47D
notes: not shown: Fc part of CD25-Fc
B12 gave a Kd of 3.66 nM, a koff of 0.00787 s⁻¹ and a kon of 2.15e+06 M⁻¹ s⁻¹.

B13: CD25 T47S mutant (CD25-Fc) (Fc fusion)
chain: B1 chain with F2L, T47S
notes: not shown: Fc part of CD25-Fc
Work on B13 yielded a Kd of 4.49 nM, a koff of 0.00588 s⁻¹ and a kon of 1.31e+06 M⁻¹ s⁻¹.

B14: CD25 Y43R mutant (CD25-Fc) (Fc fusion)
chain: B1 chain with F2L, Y43R
notes: not shown: Fc part of CD25-Fc
In the case of B14, the Kd is reported as 1.39 nM, the koff is reported as 0.000399 s⁻¹ and the kon is reported as 236000 M⁻¹ s⁻¹.

B15: CD25 L42W mutant (CD25-Fc) (Fc fusion)
chain: B1 chain with F2L, L42W
notes: not shown: Fc part of CD25-Fc
B15 was tested, and the Kd was 1.04 nM, the koff was 0.000201 s⁻¹ and the kon was 194000 M⁻¹ s⁻¹.

B16: CD25 S41N mutant (CD25-Fc) (Fc fusion)
chain: B1 chain with F2L, S41N
notes: not shown: Fc part of CD25-Fc
B16 was tested, and the Kd was 3.85 nM, the koff was 0.00707 s⁻¹ and the kon was 1.84e+06 M⁻¹ s⁻¹.

B17: CD25 L42F mutant (CD25-Fc) (Fc fusion)
chain: B1 chain with F2L, L42F
notes: not shown: Fc part of CD25-Fc
With B17 the Kd was 7.65 nM, the koff was 0.000772 s⁻¹ and the kon was 101000 M⁻¹ s⁻¹.

B18: CD25 S41E mutant (CD25-Fc) (Fc fusion)
chain: B1 chain with F2L, S41E
notes: not shown: Fc part of CD25-Fc
B18 showed a Kd of 6.08 nM, a koff of 0.00719 s⁻¹ and a kon of 1.18e+06 M⁻¹ s⁻¹.
